Assay results reported in the NTF2 design screens of Basanta et al. (2020).

Assay: protease stability score; higher = more stable; yeast display proteolysis, trypsin and chymotrypsin;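 also: relative to predicted unfolded state with 0 unfolded-like and 1 meaning tenfold more protease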

Going from “NEMHDFAKLAIELLLKSLKTGDEHTLEHLLDPNVRMNIDGRRWHGRENWVKRVHDLGITTRDFKLTDVKNQGNKVHIDGHAVEEVNGQRIERRVEIISVKIDGKWEIEEIRIE” to “SEHEKVYHDAIKIYQDNLKTGDEKRMEKFFDPNVIIHIGDKELVGRELVRHQATELARRVDHVEVHIKHVDVQGEKIRINGEIEIEINGRTIRFETHLVILKVNGRWIIHSEFIL”, the protease stability score rises from 1.02 to 1.04.

First: DHLDERAERFFLKLVENLLTGNEEIWEELIDPNMRFHAENHSDHGWEVIRRWMERLIERFDHIEIRVHRLRFQGDKVHSDVRVHYEQGDKREEINMHIIIIIINGRIHTIRLIIL
Second: DEMTHEIKRFLKEILRSSRTGDEHTDKHLMDPNVKIHYGEFHFHGREQAANFLSELRIHHVHIRDVDVQGDKATIDTEMDVEYNGQRYIFDVTLIMQKIDGRWLIKKVRYE
The protease stability score of the first is lower: 0.308 for the first, 1.3 for the second.

Going from “SEEEKHSHKAVEIITELLKTGDWHEILKNADPTTKSDFNGVELHGWEALQSILKFMGIDHVELKSIDVFNGRLTVHRNMHINGREHHLIIIALKVNGKWVLESMEVH” to “DELTHAVTRFHKETMDAVRTGNEEWHSRLLDPNTRIHIGEFNNVGMEQVIEILRRVKNLRIHHVHLDHIDFYDGRADIHGTVHGIWNGRHRKVKHEHFLLKIDGVWYLEEIRVE”, the protease stability score falls from 1.84 to 0.371.

First: SEIHRDVEEFMKRFDRDLETGDEKILEKLVDPDVKTIVNGKIFHGRETFIKLMLTIFKEMRNEHVELQSLEVQGNKAHAETRVRLTIGDWTFYLRTELHLEKYDGRWRFHSVTIE
Second: DDREKETQEFFERWVEAFITGDEHDLHEMLDPHARIHLIIGDKKEDLHGRESAVEVMKRIDHKHEFRIRHLWIFDGRIHVDVKLTGHFDGRTYQHDVHINIKIVDGKIHSIQIEWR
The protease stability score of the first is lower: 1.93 for the first, 2.22 for the second.

Compared with “SEDEEETRESLELLMRSLKTGDEHQIRRMFDPDALTVIDGREFHGRERATHAMREWKREIRIKEIRIRDWKTQGEKVHLDIEVVTEVNGVEDRREVKLLLIKVNGRWFIHSIHIH”, “SEEEEYARKAAEEFIKHVETGNEDKIILLFDPNALYVYNGVELIGWHVFKEHTHRFKNIRRHITHVEIRVINGVVHVHIDGRFHVNGVDVEQEINIVFRKINGRWKIESNEERFR” is higher in protease stability score: 1.43 for the first, 1.57 for the second.

Going from “SEEEEDIRRLEEMLTKNLLTGNEHKLRRLADPHVQIHINGVDIVGMEWMVQVRREMRVEHVDSRIDDVRVIGDKAEVDGTLIIVGEVDGQRTNETIRIHRVFEKVNGRWILHSETFI” to “DHEEKLYELEIRLLQEIVETGDEETSHRLADPHARLNINGRHLVGREHFREFVHKIKGARLDIEEVRVQGDKVIIHGRWIQGDKELDVDFISRKIDGKWKFHSIHVH”, the protease stability score rises from 1.15 to 1.33.

Compared with “EESEKSAEDATRLIIHMLETGDERLMKHLMDPDVRIEIGEYISIGRENVEELFREWRSKLGIKHIEVKRVRIEVQGNKVHIEMDTRLIVGDKEEETILRVDVVKINGRWYIKSMRLEIR”, “SELEKLLLDIARKLIHSYLTGDWRTFQELADPNVKIRVVVGDKEERIHGRENIIEWLERERKQYDHIEVRIDDERTIGDKLHIDGTFIIRVDGKTRFSRVEIHLLIIDGKVTSLEFHEK” is lower in protease stability score: 1.95 for the first, 1.07 for the second.

Going from “REEEEHAEYVIRVWERLLETGDEHEVARLLDPEVRLNIDGVDIHGREDIIRWLKHIRIEIEDSDHKRIEVQGEKIHLDGHRKEVIHVGDKKIRREHRIKLELVWIDGKITSLNVVLH” to “SELSEDLDMYIKIFLRHTETGDEESVRDFADPHAKLEIGDKTFHGRETFLDWFLDLRDRIPNITVRIHEVRIIGDKIHIDLEIIIGEKRTRIHLKIFKVDGVWVLKSLRIN”, the protease stability score rises from 1.24 to 1.58.

First: SEWEHNLQRFIEELIEDARTGNEENIRENMDPDVRAEVDGQELHGREAQRFVRERIDVIKHNHLREIRFQGDFIHVRGELRGEVNGKEVHTDTHFVIWKFNGRWIIRHVLIR
Second: SEEERLMEEAMKEFVNNSLTGDFHKMSNLADPNTRIEIDGRELHGRELAEELWERIKNLTVEIKDYKVQGDKVIIYVKIHVNGREKDVILYVQKINGRWLLRHVEVR
The protease stability score of the first is lower: 1.03 for the first, 1.34 for the second.

Compared with “REDEREAEEFLRKLLHDIRTGDEESISRMIDPHVRVIYNGVEVIGRERALEVFKKFLEEIRIDTYHVHKVDMINGKMHADTRLRWEINGQRDTSTMLIVVEKVNGRWFLHSVVIS”, “SEEQELLKKLAHENHESQRTGDEDFFHKLADPDARIRVGDKEIHGMEKVLEFWKTFRRQFKGLVVHLEDSHVINGQTFLHRNVNFNGVEEELEIILVVVDGRIKSIEIHLRRR” is lower in protease stability score: 1.97 for the first, 0.653 for the second.

Compared with “SEEDEVYEEALKITERLERTGNEEDLRTYADPHAKLRFIVDGKTIEIHGREDFVHEVVRYWKRFKNLTVRIERVEFQGDKLHLIGRLHIDGREVIIHMLSVKFNGRWFVENLHIEFV”, “HEDEDILREALKTLRHSIQTGDEDLLRELMDPNVRLETEHERLHGWEYVSKFMMDLYKRYDHMEYTVHDYKVYGDFLRVDVQLDVKQGEKDDVISTHMLALKFDGKWHIKKIIIE” is higher in protease stability score: 1.41 for the first, 1.56 for the second.

First: SEDETELKRWVERFERSMHTGDEEDLRQMADPNTRFEVGDKEIHGWDLWSKIHRKEREKLGVDNVTTNIKRLEMYGDKLRLESELIFNGQRLEVILIAEKIDGKWVVTSFHIH
Second: DEDTEKHKELLEMLVVAYLTGDFRHWWDLADPHVKLDQGDKHLHGREDMVEWIRRFIKKFKNVQVKIRHIHHQGNKDNIDGILDVDGREYHVEIIIVLVDGVIRSEEIRVK
The protease stability score of the first is lower: 0.129 for the first, 1.87 for the second.

Compared with “SEDEEQSRHAFELWVRAYLTGNEEFLEKNADPNTRFIVGDKHIHGRELVFEFLKRIIDRRGMEIKDIKMRDMRVIGEKIEVDTTLHQHYNGVDFDHQIHFIMIKIDGKWKIKTIEIR”, “DEEEHLLRRVSHFWARARKTGNEEVIRDLMDPNMRSTINGVEFHGREEHLHTLREWRVKSVHFEHVHVVDGRIEIKMREDGFVNGRETHFTLRITIVIIDGVVHHISIDLR” is lower in protease stability score: 1.43 for the first, 0.787 for the second.

Going from “SEDDEELEEAARRTLKIIRTGDEDLYTRLADPHDKMQIDGVETHGMEEISRWLKEHRDRFKGLKMIERRIRVTSIDGQVRVHIDTELRVDGVTQRVELNWIASKVDGRWRLERVEFIIR” to “HEDQERLKRFLEFYVHLINTGDEDRIRDLIDPHARVDIDGRIYHGREMYTQAYRDLGIDYLEIKRWEIQGDKVHLDTRVHIDGVERQTHLIIMKFNGRWIVHTMEVQ”, the protease stability score rises from 0.745 to 1.56.

Compared with “DEDLKLMLTLTHLWLHAVATGDEDLQTKLADPDVRFIFNGRIIHGMDEWRRFLKELRIKIEDTDHKDSDLYGEKLHIDGHIVIRIHVGEKNERIDTRVHIHVLVINGKLKSVKIETR”, “SEEENISKHLADLMFRAIFTGDWQELSRLLDPNARLRVDGVIHHGRETSVEFLERMFRTLGIDHYRVRHVNVQGEKVDIHSEVEYDGRKIDTKIHLVVVNGKVKSVDVRVD” is lower in protease stability score: 2.13 for the first, 1.97 for the second.

Going from “DELEKHLIHLAEIFIHNKLTGDEEELQRFMDPSVRTIVGEFHYHGRELVTEWLRREWEEMRIHEIHITHVRFQGDKVIIEGRLDIEVNGRRVDTHALIILVVVDGVMKSVKFEII” to “DEEIEEARHVFEEVIHNIQTGDEDAYETLMDPNVRLQVGEKKFHGRREVKEWLHEIRVRRYEIRPKDSDVIGEKVIVHGRVRIDGHYNGRDIDLEVQVHRIIVKINGRWFVHEVRIG”, the protease stability score rises from 1.23 to 1.28.

First: SDIDNEADNLLRELSEVHQTGDWKTLLELADPNVQLIVNGRDLHGWEHLARRFTELRIHHVDHRIKHIHSYDGRVDLDGRLHYDGEINGRRDILHHEVSVHTKKIDGRWIISNIQIN
Second: SEEEEDTERAMELAHHLLFTGNWEIMLKLFDPHMRLEFNGVDNHGREQVIREIRERIKLLGITNIELEPEEVRVQGDKVILHSRVDYNGKHYETEFVAEKVDGRWFIRSMRYE
The protease stability score of the first is lower: -0.21 for the first, 1.3 for the second.

Compared with “DEEHRDFKHLIKIFDDSVETGDEETFHKLLDPDVRIRVGDWQLVGREEARRVFQQIRIIIHSNRIHDVKVINGKIHADTHVDFRIEVGDKTVRERSRTIIYLDKVNGVWTIHSIEFK”, “SEEDRILELIARMMFNLWLTGNEEELERLVDPNARSVINGQEVHGMHETKELLRRLKEHIRIDDMRISRIEVYNGRAIVDLSVDGEFNGRRDITRVEIVIYVVDGKVRSIEFHRK” is higher in protease stability score: 1.08 for the first, 1.78 for the second.
